We go through five molecules from US7563760 (GENETICS INSTITUTE, dated 2009).

For assay [1], the target named is T1, E-selectin expressed on CHO cells (CHO:E-selectin) (UniProt P16581 22-610, limits assumed).
T1 construct: whole, on cells; also called E-selectin expressing CHO cells; CHO cells which express E-selectin
T1 sequence (looked up): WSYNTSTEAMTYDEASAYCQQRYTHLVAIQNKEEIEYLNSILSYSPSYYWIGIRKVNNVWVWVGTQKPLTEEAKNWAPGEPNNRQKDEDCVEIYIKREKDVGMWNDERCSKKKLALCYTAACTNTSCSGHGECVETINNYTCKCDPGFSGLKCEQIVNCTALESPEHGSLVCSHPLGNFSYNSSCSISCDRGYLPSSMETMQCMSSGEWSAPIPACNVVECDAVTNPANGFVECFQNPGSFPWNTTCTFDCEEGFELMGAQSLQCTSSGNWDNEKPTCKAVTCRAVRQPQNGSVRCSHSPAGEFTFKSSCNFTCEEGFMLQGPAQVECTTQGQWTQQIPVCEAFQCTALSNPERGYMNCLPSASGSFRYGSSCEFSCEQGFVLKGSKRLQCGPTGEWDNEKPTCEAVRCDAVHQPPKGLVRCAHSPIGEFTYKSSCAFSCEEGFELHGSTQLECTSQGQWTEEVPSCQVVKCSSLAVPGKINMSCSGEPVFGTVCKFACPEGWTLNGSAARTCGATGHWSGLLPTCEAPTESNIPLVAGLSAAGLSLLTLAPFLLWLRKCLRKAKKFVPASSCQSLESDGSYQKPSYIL
The assay is described as follows: plate coated with chimera; adhesion of 3H-labelled CHO:E-selectin cells (FIG. 15). The method, then:
Quantitative adhesion of CHO:P-selectin, CHO:E-selectin and CHO:L-selectin expressing cells was performed as described in Example 4(c), with the following modifications: COS cell and antibodies were omitted. Instead, 48-well microtiter plates (Costar) were coated for 16 hours at 4° C. with varying quantities of protein A-purified soluble PSGL-1/Fc chimeras. The unbound material was removed and the coated wells were treated with Hank's buffered saline (HBS) with 1 mg/ml BSA and 2 mM CaCl_2 for 1 hour at 4° C. Tritium labeled CHO selectin expressing cells were added and binding quantitated as described in Example 4(c).

Assay [2] has as its target T2, chimeric protein comprising the extracellular domain of human E-selectin and the Fc portion of human IgG1 … (human, UniProt P16581 22-556).
T2 construct: extracellular domain; Built analogously to LEC-γ1; also called soluble E-selectin chimera; immobilized E-selectin; not shown: Fc portion of human IgG1
T2 sequence (looked up): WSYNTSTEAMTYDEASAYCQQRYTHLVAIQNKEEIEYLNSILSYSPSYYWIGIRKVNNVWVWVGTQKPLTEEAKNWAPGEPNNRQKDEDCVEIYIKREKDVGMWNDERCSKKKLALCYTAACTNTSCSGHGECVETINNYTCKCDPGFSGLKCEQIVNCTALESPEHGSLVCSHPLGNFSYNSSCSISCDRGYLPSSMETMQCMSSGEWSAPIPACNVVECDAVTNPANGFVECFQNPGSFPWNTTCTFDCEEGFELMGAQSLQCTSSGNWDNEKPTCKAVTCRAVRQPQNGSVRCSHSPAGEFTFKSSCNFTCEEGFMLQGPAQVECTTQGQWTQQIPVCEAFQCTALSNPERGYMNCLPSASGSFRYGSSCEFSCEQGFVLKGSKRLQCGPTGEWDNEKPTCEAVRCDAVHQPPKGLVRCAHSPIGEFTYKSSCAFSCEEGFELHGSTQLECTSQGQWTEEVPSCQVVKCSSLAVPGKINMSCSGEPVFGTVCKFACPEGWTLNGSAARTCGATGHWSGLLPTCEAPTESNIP
Kind of assay: affinity precipitation from 35S-labelled COS membrane lysates (FIG. 29A). How it is done: (§1) The labeled cells were washed, incubated with EGTA to loosen them from the dish surface, scraped from the dish, pelleted, and suspended in cold 10 mM PIPES buffer, pH 7.5, containing 100 mM KCl, 3 mM NaCl, 3.5 mM MgCl_2, and protease inhibitors (see above). Membrane extraction then was carried out by sonication, low speed centrifugation, high speed centrifugation, and solubilization in membrane lysis buffer as above, for labeled myeloid cells.
(§2) Affinity Precipitations. Membrane extracts were diluted 1:4 or 1:5 with cell lysis buffer or with TBSC buffer (20 mM TrisHCl, 150 mM NaCl, 2 mM CaCl_2, pH 7.5) supplemented with 5 mg/ml bovine serum albumin (approximately 99%, Sigma). Extracts thus diluted to 0.2-0.25% Triton X-100 were incubated with human IgG_1-Protein A Sepharose with end-over-end mixing at 4° C. overnight. […] The resins were washed 5 or more times in buffer containing 0.1-0.5% Triton X-100 until the radioactivity of the wash supernatants was reduced to background level. […]
(§3) COS cells were cotransfected with cDNAs encoding either PSGL-1 or CD43 and either Fuc-TIII or Fuc-TVII. […] The precipitated products were evaluated by SDS-PAGE/autoradiography following their release by EDTA/EGTA (for selectin mediated binding) or by boiling in SDS (for immunoprecipitations).

The target in assay [3] is T3, LEC-γ1, chimeric form of P-selectin conjugated to the Fc portion of a human IgGγ1 (human, UniProt P16109 42-771).
T3 construct: extracellular domain; Built by known methods (Aruffo et al. 1991), made in CHO DUKX cells; also called P-selectin/IgG chimera; P-selectin/Fc chimera; not shown: Fc portion of a human IgGγ1
T3 sequence (looked up): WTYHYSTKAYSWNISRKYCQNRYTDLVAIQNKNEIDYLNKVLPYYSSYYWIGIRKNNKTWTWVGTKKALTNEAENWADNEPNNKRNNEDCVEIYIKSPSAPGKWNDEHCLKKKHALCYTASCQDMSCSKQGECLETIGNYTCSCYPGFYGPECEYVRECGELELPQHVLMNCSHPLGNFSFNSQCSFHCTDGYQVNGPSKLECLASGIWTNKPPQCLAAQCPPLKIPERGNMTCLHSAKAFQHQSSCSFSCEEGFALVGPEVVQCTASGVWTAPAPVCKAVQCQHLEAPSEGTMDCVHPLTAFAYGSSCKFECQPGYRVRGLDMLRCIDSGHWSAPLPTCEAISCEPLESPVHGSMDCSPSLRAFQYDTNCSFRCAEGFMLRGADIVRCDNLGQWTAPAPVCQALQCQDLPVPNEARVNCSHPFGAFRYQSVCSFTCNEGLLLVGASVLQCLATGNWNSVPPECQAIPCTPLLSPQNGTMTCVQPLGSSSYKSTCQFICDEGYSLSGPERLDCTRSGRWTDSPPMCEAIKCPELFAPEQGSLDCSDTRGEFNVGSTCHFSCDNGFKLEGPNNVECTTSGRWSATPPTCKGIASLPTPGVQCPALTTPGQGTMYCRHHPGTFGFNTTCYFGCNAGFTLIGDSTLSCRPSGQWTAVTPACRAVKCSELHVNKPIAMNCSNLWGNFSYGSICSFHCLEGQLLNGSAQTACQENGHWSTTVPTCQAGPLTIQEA
Kind of assay: affinity precipitation from 35S-labelled COS membrane lysates. The method, then: as §1, §2, §3

The target in assay [4] is T4, P-selectin expressed on the surface of CHO cells (CHO:P-selectin cell line) (UniProt P16109 42-830, limits assumed).
T4 construct: whole, on cells; also called P-selectin expressing CHO cells
T4 sequence (looked up): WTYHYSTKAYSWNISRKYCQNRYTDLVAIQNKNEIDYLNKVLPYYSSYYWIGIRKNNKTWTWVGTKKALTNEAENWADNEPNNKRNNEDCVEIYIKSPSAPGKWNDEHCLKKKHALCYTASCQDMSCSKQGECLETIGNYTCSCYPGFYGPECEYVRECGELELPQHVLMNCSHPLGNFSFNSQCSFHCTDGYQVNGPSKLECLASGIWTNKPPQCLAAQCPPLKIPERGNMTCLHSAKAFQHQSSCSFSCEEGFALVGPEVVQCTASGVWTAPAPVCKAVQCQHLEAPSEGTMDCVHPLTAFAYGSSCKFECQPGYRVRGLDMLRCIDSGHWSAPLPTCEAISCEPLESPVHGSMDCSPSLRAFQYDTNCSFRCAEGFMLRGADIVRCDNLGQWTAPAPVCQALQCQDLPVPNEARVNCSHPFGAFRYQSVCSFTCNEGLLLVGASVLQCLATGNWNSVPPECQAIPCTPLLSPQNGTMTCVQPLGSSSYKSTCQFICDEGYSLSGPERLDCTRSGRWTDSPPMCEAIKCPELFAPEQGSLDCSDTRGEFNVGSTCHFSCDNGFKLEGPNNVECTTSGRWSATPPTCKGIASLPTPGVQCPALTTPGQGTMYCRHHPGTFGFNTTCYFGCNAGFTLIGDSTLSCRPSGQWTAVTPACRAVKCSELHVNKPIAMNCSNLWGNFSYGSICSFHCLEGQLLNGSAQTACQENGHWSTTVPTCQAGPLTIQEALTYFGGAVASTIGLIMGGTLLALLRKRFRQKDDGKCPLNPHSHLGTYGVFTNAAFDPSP
The assay is described as follows: conditioned medium coated on plastic dishes; adhesion of CHO:P-selectin cells. The method, then:
COS cells were co-transfected with the pED.sPSL.T7 plasmid of Example 5(C), the pEA.3/4FT cDNA of Example 2, and a plasmid containing the PACE cDNA as set forth in SEQ ID NO:5. A parallel control co-transfection was done using only the pED.sPSL.T7 plasmid and the pEA.3/4FT plasmid. After 45 hours, conditioned medium from these transfected COS cells was coated onto plastic dishes and binding to CHO:P-selectin cells (Example 4) was determined.

Where a chain is given by its changes, count along the chain named.

B1: 148.Fc, P-selectin ligand-IgG chimera with amino acids 42-189 of SEQ ID NO:2 (Fc fusion)
chain: QATEYEYLDYDFLPETEPPEMLRNSTDTTPLTGPGTPESTTVEPAARRSTGLDAGGAVTELTTELANMGNLSTDSAAMEIQTTQPAATEAQTTPLAATEAQTTRLTATEAQTTPLAATEAQTTPPAATEAQTTQPTGLEAQTTAPAAM
modifications: tyrosine residues of the anionic region (46, 48, 51 of SEQ ID NO:2) are the major site of sulfation; glycosylated, co-expressed with 3/4FT
notes: also called pED.148.Fc product; pED.149.Fc; not shown: NotI junction/linker of pED.Fc; Fc region of a human IgG1 from pED.PSL.Fc
As for B1, in assay [1], the binding result is “binds”.

B2: FFFE.148.Fc (Fc fusion)
chain: B1 chain with Y5F, Y7F, Y10F, D11E
modifications: glycosylated, co-expressed with 3/4FT
notes: also called pED.FFFE.148.Fc product; not shown: NotI junction/linker of pED.Fc; Fc region of a human IgG1
Regarding B2, in assay [1], the binding result is “binds”.

B3: recombinant CD43 (pFCD43) from COS cells co-transfected with Fuc-TIII (other, UniProt P16150 20-400, looked up)
chain: STTAVQTPTSGEPLVSTSEPLSSKMYTTSITSDPKADSTGDQTSALPPSTSINEGSPLWTSIGASTGSPLPEPTTYQEVSIKMSSVPQETPHATSHPAVPITANSLGSHTVTGGTITTNSPETSSRTSGAPVTTAASSLETSRGTSGPPLTMATVSLETSKGTSGPPVTMATDSLETSTGTTGPPVTMTTGSLEPSSGASGPQVSSVKLSTMMSPTTSTNASTVPFRNPDENSRGMLPVAVLVALLAVIVLVALLLLWRRRQKRRTGALVLSRGGKRNGVVDAWAGPAQVPEEGAVTVTVGGSGGDKGSGFPDGEGSSRRPTLTTFFGRRKSRQGSLAMEELKSGSGPSLKGEEEPLVASEDGAVDAPAPDEPEGGDGAAP
modifications: co-expressed with Fuc-TIII
notes: Membrane detergent extract; also called recombinant leukosialin
Turning to B3, the binding result in assay [2] and in assay [3] was “no binding” in each case.

B4: recombinant CD43 (pFCD43) from COS cells co-transfected with Fuc-TVII (other, UniProt P16150 20-400, looked up)
chain: B3 chain
modifications: co-expressed with Fuc-TVII
notes: as for B3
On to B4, for which the binding result in assay [2] and in assay [3] was “no binding” throughout.

B5: sPSL.T7 co-expressed with 3/4FT and PACE (PACE-cleaved soluble P-selectin ligand) (ligand, not shown: large carriers)
chain: QATEYEYLDYDFLPETEPPEMLRNSTDTTPLTGPGTPESTTVEPAARRSTGLDAGGAVTELTTELANMGNLSTDSAAMEIQTTQPAATEAQTTPLAATEAQTTRLTATEAQTTPLAATEAQTTPPAATEAQTTQPTGLEAQTTAPAAMEAQTTAPAAMEAQTTPPAAMEAQTTQTTAMEAQTTAPEATEAQTTQPTATEAQTTPLAAMEALSTEPSATEALSMEPTTKRGLFIPFSVSSVTHKGIPMAASNLSV
modifications: glycosylated; co-expressed with 3/4FT
notes: also called PACE-cleaved P-selectin ligand; CP/PSL-T7 (R4.1) product
As to B5, the “fold increase in bound CHO:P-selectin cells against P-selectin ligand not co-expressed with PACE” value in assay [4] is approximately 2 fold.
